Experimental data reported in article PMC12289762, “A prevalent MOCS2 variant in the Roma population is associated with a novel mild form of molybdenum cofactor deficiency” (European Journal of Pediatrics, 2025).
Residue numbers refer to the chain shown, from its start. Names and notes keep the numbering of the source.

B1: MOCS2A wild-type (small subunit of MPT synthase) (natural protein, human, UniProt O96033 1-88, looked up)
chain: MVPLCQVEVLYFAKSAEITGVRSETISVPQEIKALQLWKEIETRHPGLADVRNQIIFAVRQEYVELGDQLLVLQPGDEIAVIPPISGG
modifications: thiocarboxylated C-terminal tail
notes: MOCS2A, small subunit of molybdopterin (MPT) synthase, human; encoded by MOCS2 transcript variant 1 (NM_176806.4); also called MOCS2A WT; WT MOCS2A
B2: MOCS2A p.Ile82Phe variant (natural protein, human, UniProt O96033 1-88, looked up)
chain: B1 chain with I82F
modifications: thiocarboxylated C-terminal tail
notes: MOCS2A, small subunit of molybdopterin (MPT) synthase, human, patient variant c.244A>T (NM_176806.4; p.Ile82Phe), rs776441627; Variant found in patients (natural variant); also called MOCS2A I82F; MOCS2 p.Ile82Phe

Columns and labels:
[1] = molecular target: T1, MOCS2B wild-type (large subunit of MPT synthase) (human, UniProt O96007 1-188); experiment: ITC; VP-ITC; 20-50 uM MOCS2B in the sample cell (1.5 mL), 200-500 uM MOCS2A in the syringe; 10 mM Tris-HCl, 250 mM NaCl, pH 8.0; n = 3 experiments; settings: both partners purified
T1 construct: MOCS2B, large subunit of molybdopterin (MPT) synthase, human; encoded by MOCS2 transcript variant 3 (NM_004531.5); Cloned into pET15b, a vector that can add an N-terminal His tag; also called MOCS2B WT; WT MOCS2B; source: Escherichia coli BL21 (pET15b), purified (ammonium sulfate precipitation, size exclusion chromatography on Superdex 200)
T1 sequence (looked up): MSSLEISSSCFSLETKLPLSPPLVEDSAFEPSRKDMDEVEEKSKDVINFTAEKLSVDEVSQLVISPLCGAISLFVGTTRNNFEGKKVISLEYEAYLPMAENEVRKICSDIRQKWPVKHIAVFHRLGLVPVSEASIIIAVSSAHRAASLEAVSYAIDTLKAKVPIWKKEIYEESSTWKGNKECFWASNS

[2] = molecular target: T2, MOCS2B p.Leu19Phe variant (human, UniProt O96007 1-188, p.Leu19Phe); experiment: as above; settings: both partners purified
T2 construct: MOCS2B, large subunit of molybdopterin (MPT) synthase, human, patient variant c.57A>T (NM_004531.5; p.Leu19Phe), rs776441627; Variant found in patients (natural variant); Cloned into pET15b; also called MOCS2B L19F; MOCS2B Leu19Phe; source: Escherichia coli BL21 (pET15b), purified (ammonium sulfate precipitation, size exclusion chromatography on Superdex 200)
T2 sequence (looked up): T1 sequence (looked up) with L19F

[3] = molecular target: T2, MOCS2B p.Leu19Phe variant; experiment: cell-based or functional assay

| Binder | Kd [1] [nM] | stoichiometry N [1] | Kd [2] [µM] | in vitro MPT synthesis activity (500 pmol cPMP, 200 pmol MOCS2B, 0-500 pmol MOCS2A; HPLC Form A method), relative to WT MOCS2A/B [3] |
| --- | --- | --- | --- | --- |
| B1 | 359 ± 47 | 1.15 ± 0.2 | 0.114 ± 0.016 | – |
| B2 | 2800 ± 300 | – | 7.4 ± 2.1 | ~20 % of WT |
